US12472269B2, “Liver-specific inducible promoters and methods of use thereof” (ASKBIO INC., priority 2019, dated 2025)

Legend:
Huh7 cells = assay: EPO expression (ELISA of medium) from PB1-MinTK in Huh7 cells with CAR-containing plasmid, induction by CITCO; assay type: cell-based, human; conditions: 22% vs 40% of CMV-IE with PB1-MinTK
Description: • Huh7 cells which are a human liver cell line • DPBS: without CaCl2, without MgCl2 (Gibco, 14190-094) • DMEM (Sigma, D6546) • FBS (Sigma, F9665) • Pen-Strep (Sigma, P4333) • Promega Fugene-HD (E2311) • TCPOBOP (Sigma, T2320) • CITCO (Cayman Chemicals Company, 16027) • pcDNA6 plasmid which contains the β-galactosidase gene used as internal control for transfection efficiency (Thermofisher, V22020) • mouse CAR expression plasmid from Jouan et al, 2016 (BioCat GmbH, EX-Z4288-M51-10-GC). This was used as Huh7 is CAR deficient. • β-galactosidase substrate solution (Thermofisher, 75707/75710) • Pierce BCA kit (23225) • LARII (Dual Luciferase Reporter 1000 assay system, Promega, E1980) • EPO ELISA kit (Abcam, ab119522) Method: Day 1 • Cells were seeded onto a 48 well plate at a density of 25,000 cells/300 μl Day 2 • On the day of transfection, DNA to be transfected (CAR plasmid/PB1-MinTK operably linked with luciferase or EPO/pcDNA6 plasmid for internal control) was diluted to a 100 ng/μl stock solution. Per 48 Well Transfection: • 45 ng of DNA (15 ng of each plasmid, pcDNA6, CAR and test plasmid) was mixed with 4.1 μl of Optimem medium. • 0.5 μl of Fusion HD was mixed with 4 μl of Optimem medium. • These 2 solutions were mixed and incubated at room temperature for 15 minutes. • The final solution was then added to the well drop wise. • 3 hrs after transfection, the inducer TCPOBOP was added to the appropriate wells at the indicated concentration. Day 3 • 24 hrs after induction the media was removed from the cells. • The cells were washed once in 300 μl of DPBS • Cells were lysed using 100 μl of passive lysis buffer and incubation with rocking for 15 minutes • The cell debris was pelleted by centrifugation of the plate at max speed in a benchtop centrifuge for 1 min • For luciferase, 10 μl sample was transferred into white 96-well plate and luminescence measured by injection of 50 μl of LARII substrate. • β-galactosidase activity was measured as per manufacturer's instructions (Mammalian β-Galactosidase Assay Kit, 75707/75710, Thermo Scientific) using 25 μl of lysate. 25 μl of lysate was transferred into a microplate well and mixed with 25 μl of β-galactosidase Assay Reagent, equilibrated to room temperature. The mixture was incubated at 37° C. for 30 min and absorbance measured at 405 nm. • Protein concentration was measured as per manufacturer's instructions (Pierce™ BCA Protein Assay Kit, 23225/23227, Thermo Scientific) using 25 μl of lysate. 25 μl of lysate was transferred into a microplate well and mixed with 200 μl of working solution. The mixture was incubated at 37° C. for 30 min, cooled to room temperature and then absorbance measured around 562 nm. The protein concentration was calculated with respect to protein standard curve prepared from assaying standards with known protein concentration.
Transfections with PB1-MinTk-EPO were performed as described above with the exception that EPO is secreted into the medium. Therefore, medium was collected, and EPO concentration measured as per manufacturer's instructions (ab119522 Erythropoietin (EPO) Human ELISA Kit, Abcam) using an ELISA assay. 50 μl of medium was transferred to a pre-washed microplate wells and mixed with 50 μl of 1× Biotin Conjugated Antibody. The mixture was incubated at room temperature for 1 hour. The wells were washed, 100 μl of Streptavadin-HRP was added and the plate was incubated at room temperature for 15 minutes. The wells were washed and then 100 μl of TMB Substrate Solution. The mixture was incubated at room temperature for 10 minutes. The enzyme reaction was stopped by addition of 100 μl of Stop Solution and absorbance was read at 450 nm. The EPO concentration was calculated with respect to EPO standard curve prepared from assaying standards with known EPO concentration.
The PB1-MinkTK promoter was then used to drive expression of the protein EPO, which is of therapeutic interest. […]

AXOL ARE-hepatocytes = assay: Luciferase expression from PBREM promoters in AXOL ARE-hepatocytes, induction by CITCO; assay type: cell-based, human; conditions: for induced luciferase expression as a ratio to CMV-IE: induction with CITCO, mean of 3 biological replicates
Description: Axol Assay-Ready Expanded (ARE) Hepatocytes are primary human hepatocytes that have been expanded in vitro. Large batch sizes (up to 2000 vials) are available, ensuring a reliable, ready-to-use and consistent source of primary hepatocytes. ARE Hepatocytes express CYP enzymes, are metabolically functional, are polarized and can be infected by the Hepatitis C virus. AXOL ARE-hepatocytes express CAR negating the need to transfect with a CAR-expressing plasmid.
• AXOL assay-ready expanded (ARE) hepatocytes (Axol, ax3701) • ARE hepatocyte thawing medium (Axol, ax3705) • ARE maintenance medium (Axol, ax3710) • Virimer red transfection reagent (Lipocalyx, VR04-02-15) • CITCO, lucifierase, β-galactosidase and BCA kits as described above
ARE hepatocytes were cultured and transfected as described in the manufacturer's manual. 200,000 cells were seeded in 2 ml culture medium in collagen-coated 6 well plate. The cells were incubated for 4 h at 37° C. and 5% CO2 for sufficient adhesion. 200 μl of transfection mixture containing the DNA to be transfected (PB1-MinTK/PB1-CMV/PB1-SV40 operably linked with luciferase and β-galactosidase containing promoter) was added and the cells were incubated on an orbital shaker at 100 rpm for three hours at 37° C. and 5% CO2. 3 hrs after transfection CITCO was added to the appropriate wells. Cells were incubated under static conditions at 37° C. and 5% CO2 overnight and in the morning the medium was replaced with fresh ARE Hepatocyte Maintenance Medium. Readout was 24 hrs after induction. […]

CD1 male mice = assay: In vivo bioluminescence imaging of mice injected with AAV9 constructs, induction by phenobarbital; conditions: AAV9 via tail vein
Procedure: • Seed HEK 293-AAV cells in 15 cm plates. To be 70-80% confluent on the day of transfection • Final volume on each plate: 15 ml Day 2: Prepare Transfection Mix: • DNA mix/plate: pDG9 (Packaging plasmid for AAV9): 10.5 μg/pHGTI (Ad. Helper plasmid): 31.5 μg/Vector plasmid: 10.5 μg/Prepare in serum free DMEM/Optimem • Transfer mix/plate: PEI: 125 μl/Prepare in serum free DMEM/Optimem • Add DNA mix into transfection mix. Mix and leave at room temperature for 15-20 mins. • Add 3 ml of transfection mix to each plate drop-wise and gently distribute. Incubate for 24 h. Day 3: • Replace media with 15 ml DMEM supplemented with P/S and 2% FCS. Leave for 48 h. Day 5: • Collect supernatant and pool in 50 ml tubes, 25 ml each tube. Store at −20° C. • Collect cells: Add 5 ml of PBS to each plate→scrape and collect in 50 ml tubes. • To wash plates, add another 1 ml of PBS and collect. • Spin at 1500 rpm for 5 mins. • Remove supernatant and resuspend pelleted cells in 1 ml/plate TD lysis buffer→pool • Store at −80′C. Endonuclease Treatment Cells: • Freeze and thaw pellets 5 times→˜20 mins at 37° C. then ˜20 mins in dry ice (or −80° C.). • Add 25 μl/ml cells of 20% Deoxycholate (or 50 μl/ml of 10% Deoxycholate). • Add 8 μl/ml cells of benzonase. • Incubate at 37° C. for 30 mins. • Spin at 4 Krpm for 30 mins. • Filter supernatant using […] filters. • Store at 4° C. for up to 24 h. Supernatant: • Add 2.5 μl/25 ml supernatant of benzonase. • Add 50 μl/25 ml supernatant of MgSO4. • Incubate at 37° C. for 30 mins. • Spin at 4 Krpm for 30 mins. • Filter supernatant using […] filters. • Store at 4′C for up to 24 h. Hplc Purification • Place both lines in 20% ETOH→template→system wash • Put line A in PBS and line B in Glycine→template→system wash • Place the column in the machine→manual run→flowrate: 5 ml/min→Run for 25 ml or until the UV line is flat. • Prepare FACS tubes (10 for cells and more for supernatant): add 30 μl/tube Tris→put in the machine to collect vectors. • Place the waste lines in a separate tube to be able to run them again through the column. • Run samples (flowrate low, depending on how fast the system and how concentrated the sample is; for cells it is slower, for supernatant it is higher). • After running the waste through the column, wash with PBS→flowrate: 5 ml/min until the UV line is flat. • Set→fraction size: 1 ml; Flowrate: 1 ml/min; concentration % B: 100%→run. • Start collecting: Look for the peak. The peak indicates vector purification. Mark the tubes containing these vectors. • Save programme before exiting. • Wash with PBS→75 ml, 5 ml/min • Wash with Na3PO4 (to store the column in)→75 ml, 5 ml/min • Remove column and store at 4° C. • Wash the machine with PBS→template→system wash • Wash the machine with 20% ETOH→template→system wash • Put both lines in 20% ETOH and shut down • Add 2 L of PBS into a big bucket and put the Dialysis cassette (Side-A-Lyzer; Thermo scientific) to prime. • Collect the vectors from the marked FACS tubes using a syringe and needle and add into the dialysis cassette→remove excess air from the membrane, carefully place the rubber on top of the cassette and let it float in the PBS-containing bucket→leave over night at room temperature on a slow rotating rotor. Next Day: • Prime membrane by adding 5 ml PBS onto a centrifugal filter (Amico Ultra 15; MERCK)→spin for 5 mins at 4 Krpm • Remove excess PBS from inside the membrane. • Take vectors out from the cassette and load onto the membrane→spin for 5 mins at 4 Krpm • Wash the membrane with the vectors inside few times, then collect into 2 ml centrifuge tube filter 0.22 μM (Spin-X; COSTAR) • Spin for 3 mins at 13 Krpm. • Remove filter and aliquot: 1×100 μl (for injection), the rest in 10-2 μl aliquots. • Store in −80° C. • Virus quantification was performed using qRT-PCR with primers and probes for the luciferase gene. Mice Experiment […]

Clc1ccc(-c2nc3sccn3c2C=NOCc2ccc(Cl)c(Cl)c2)cc1 [CITCO, 6-(4Chlorophenyl)imidazo[2,1-b][1,3]thiazole-5-carbaldehyde-O-(3,4-dichlorobenzyl)oxime, reference compound]
strength as inducer of CAR activity (Huh7 cells): weaker inducer of CAR activity than TCPOBOP

B1: CMV-IE: strong viral CMV-IE comparative promoter, SEQ ID NO: 52 (nucleic acid)
DNA: GACATTGATTATTGACTAGTTATTAATAGTAATCAATTACGGGGTCATTAGTTCATAGCCCATATATGGAGTTCCGCGTTACATAACTTACGGTAAATGGCCCGCCTGGCTGACCGCCCAACGACCCCCGCCCATTGACGTCAATAATGACGTATGTTCCCATAGTAACGCCAATAGGGACTTTCCATTGACGTCAATGGGTGGAGTATTTACGGTAAACTGCCCACTTGGCAGTACATCAAGTGTATCATATGCCAAGTACGCCCCCTATTGACGTCAATGACGGTAAATGGCCCGCCTGGCATTATGCCCAGTACATGACCTTATGGGACTTTCCTACTTGGCAGTACATCTACGTATTAGTCATCGCTATTACCATGGTGATGCGGTTTTGGCAGTACATCAATGGGCGTGGATAGCGGTTTGACTCACGGGGATTTCCAAGTCTCCACCCCATTGACGTCAATGGGAGTTTGTTTTGGCACCAAAATCAACGGGACTTTCCAAAATGTCGTAACAACTCCGCCCCATTGACGCAAATGGGCGGTAGGCGTGTACGGTGGGAGGTCTATATAAGCAGAGCT
modifications: CMV-IE comparative promoter
induction of luciferase expression (AXOL ARE-hepatocytes; 1 μM CITCO, readout 24 hrs after induction): ~2 fold
tissue distribution of luciferase expression (CD1 male mice): expressing in almost all tissues of the mouse

B2: PB1-2-CMV: promoter: 3 mouse PBREM elements with CMV minimal promoter, SEQ ID NO: 17 (nucleic acid)
DNA: TCTGTACTTTCCTGACCTTGGCACAGTGCCACCATCAACTTGCCTGACACCCATTACTCGCATCCATTCTCTCTGTACTTTCCTGACCTTGGCACAGTGCCACCATCAACTTGCCTGACACCGCACTGAAGGTCCTCAATCGTCTGTACTTTCCTGACCTTGGCACAGTGCCACCATCAACTTGCCTGACACCGCTGGGAGTTCGTAGACGGAGCGATTAATCCATATGCAGGTCTATATAAGCAGAGCTCGTTTAGTGAACCGTCAGATCGCCTAGATACGCCATCCACGCTGTTTTGACCTCCATAGAAGATCGCCACCC
modifications: PB1-2-CMV
induced luciferase expression as a ratio to CMV-IE (AXOL ARE-hepatocytes): 2.67

B3: PB1-3-CMV: promoter: 4 mouse PBREM elements with CMV minimal promoter, SEQ ID NO: 18 (nucleic acid)
DNA: TCTGTACTTTCCTGACCTTGGCACAGTGCCACCATCAACTTGCCTGACACCCATTACTCGCATCCATTCTCTCTGTACTTTCCTGACCTTGGCACAGTGCCACCATCAACTTGCCTGACACCGCACTGAAGGTCCTCAATCGTCTGTACTTTCCTGACCTTGGCACAGTGCCACCATCAACTTGCCTGACACCCTGACCTCCTGCCAGCAATATCTGTACTTTCCTGACCTTGGCACAGTGCCACCATCAACTTGCCTGACACCGCTGGGAGTTCGTAGACGGAGCGATTAATCCATATGCAGGTCTATATAAGCAGAGCTCGTTTAGTGAACCGTCAGATCGCCTAGATACGCCATCCACGCTGTTTTGACCTCCATAGAAGATCGCCACCC
modifications: PB1-3-CMV
induced luciferase expression as a ratio to CMV-IE (AXOL ARE-hepatocytes): 2.67
